According to patent US20140017260A1:

Biological target: Runx2
Experiment: cell-based or functional assay

Row | suppression of Runx2 activation of the p6OSE2-Luc reporter construct [%] | Substance
1 | 91 | retinoic acid receptor-related orphan receptor beta (Rorβ), wild-type, with C-terminal FLAG epitope
2 | 75 | Rorβ ΔAD (deletion of the activation domain), C-terminal FLAG (receptor)
3 | 28 | Rorβ ΔHinge (deletion of the Hinge domain), C-terminal FLAG (receptor)
4 | 88 | Rorβ ΔLBD (deletion of the ligand binding domain), C-terminal FLAG (receptor)
5 | 96 | Rorβ E28A/G29A double-point mutant in the DBD, C-terminal FLAG (receptor)
